To fix the notation:
B1: R764-B7 (HT186-B7 IgG) (antibody, V domains shown)
VH: QMQLVQSGAEVKKPGASVKVSCKASGYTFTGHYMHWVRQAPGQGLEWMGWIDPVTGGTKYAQNFQGWVTMTRDTSIRTAYMELSRLRSDDTAMYYCAREVTGDRGQFDKWGQGTLVTVAS
VL: QSVLTQPPSVSVAPGKTARITCGGNNIGSKSVHWYQQKPGQAPALVIYYGSYRPSGIPERFSGSNYGNTATLTIRRVEAGDEADYYCQVWDSSSDWVFGGGTKLTVLG
notes: Human IgG1, lambda, produced in YB2/0 cells
B2: R764-D11 (HT186-D11 IgG) (antibody, V domains shown)
VH: B1 VH with G8E, V11L, T28S, M81L
VL: B1 VL with Y52N, Y66S, R75S
notes: Human IgG1, lambda, produced in YB2/0 cells; also called R764 HT186-D11
B3: HT186-B7 scFv (scFv)
scFv: QMQLVQSGAEVKKPGASVKVSCKASGYTFTGHYMHWVRQAPGQGLEWMGWIDPVTGGTKYAQNFQGWVTMTRDTSIRTAYMELSRLRSDDTAMYYCAREVTGDRGQFDKWGQGTLVTVASASTKGPSVKLEEGEFSEARVQSVLTQPPSVSVAPGKTARITCGGNNIGSKSVHWYQQKPGQAPALVIYYGSYRPSGIPERFSGSNYGNTATLTIRRVEAGDEADYYCQVWDSSSDWVFGGGTKLTVLGQPKAAPSVTLFPPS
notes: scFv as VH-truncated CH1-linker-VL-truncated CL, made in the E. coli periplasm and purified by its His-tag; not shown: C-terminal His-tag used for purification and detection
B4: HT186-D11 scFv (scFv)
scFv: B3 scFv with G8E, V11L, T28S, M81L, A121S, Y192N, Y206S, R215S, P261S
notes: as for B3
B5: HT186-G2 scFv (scFv)
scFv: RMQLVQSGAEVKKPGASVKLSCKASGYTFAGHYMHWVRQAPGRGLEWMGWIDPVTGGTKYAQNFQGWVTMTRDTSIRTAYMELSRLRSDDTAMYYCAREVTGDRGQFDKWGQGTLVTVASASTKGPSVKLEEGKFLEAHVQSVLTQPPSVSVAPGKTARITCGGNNIGSKSVHWYQQKPGQAPVLVIYYGSDRSSGIPERFSGSNSGNTATLTISRVEAGDEADYYCQVWDSSSDWVFGGGTKLTVLGQPKAAPSVTLFPPS
notes: as for B3
B6: HT220-M-G8 scFv (scFv)
scFv: B3 scFv with K12M, T28S, Q39H, G57S, R77S, A184V, Y192D, Y206T, T209M, R215S
notes: as for B3
B7: HT200-3A-C1 scFv (scFv)
scFv: QMQLVQSGAEVKKPGASVKVSCKASGYTFTGHYMHWVRQAPGQGLEWMGWIDPVTGGTKYAQNFQGWVTMTRDTSIRTAYMELSRLRSDDTAMYYCAREVTGDRGQFDKWGQGTLVTVASASTKGPSAKLEEGEFSEARVQSVLTQPPSVSMAPGETARITCGGNNIGSKSVHWYQQKPGQAPVLVIYNDSDRPSGIPERFSGSNSGKTATLTISRVEAGDEADYYCQVWDSSIDWVFGGGTKLTVLGQPKAAPSVTLFPPS
notes: as for B3
B8: HT220-M-D1 scFv (scFv)
scFv: QMLLVQSGAEAKKPGASVKVSCKASGYTFTGHYMHWVRQAPGQGLEWMGWIDPVTGGTKYAQNFQGWVTMTRDTSIRTAYMELSRLRPDDTAMYYCAREVTGDRGQFDKWGQGTLVTVASASTKGPSVKLEEGEFSEARVQSVLTQPPSVSVVPGKTARIICGGNNIGSKSVHWYQQKPGQAPVLVIYNNSDRPSGIPERFSGSNSGNMATLTISRVEAGDESDYYCQVWDSSSDWVFGGGTRLTILGQSKAAPSVTLFPPS
notes: as for B3

Residue numbers refer to the chain shown, from its start.

One test addresses T1, 32-mer MUC1 peptide (human).
T1 construct: also called MUC1 peptide antigen (32mer cys); MUC1 peptide (32 mer cys)
T1 peptide: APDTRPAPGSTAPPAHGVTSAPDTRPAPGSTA
The experiment in a line: ELISA, IgG on coated 32-mer MUC1 peptide. How it is done:
(§1) This analysis was done using the ELISA technique wherein the 32-mer MUC1 peptide is immobilized in the wells of a microtitre plate, and wherein the anti-MUC1 antibodies are added later in different concentrations.
For B1, the “fold stronger binding than R764-G2 and R764-hHMFG1” value is 10 times.
Same read-out and setting: the figure for B2 is 10 times.

The target of the next test is T2, MUC1 peptide (15 aa+cystein, APDTRPAPGSTAPPAC) (human).
T2 construct: If the listing entry has only 15 residues, a C-terminal Cys must be added; Immobilized on the SPR chip; also called synthetic MUC1 peptide
T2 peptide: APDTRPAPGSTAPPAC
Nature of the test: SPR, scFv over immobilized MUC1 peptide, Chip 2 (14 RU).
B3 yielded a Ka of 6.3e+08 M⁻¹, a Kd of 1.6 nM, a koff of 0.00014 s⁻¹ and a kon of 90000 M⁻¹ s⁻¹.
B4 registered a Ka of 1.5e+09 M⁻¹.
The molecule B5 registered a Ka of 6.6e+08 M⁻¹, a Kd of 1.5 nM, a koff of 0.00011 s⁻¹ and a kon of 73000 M⁻¹ s⁻¹.

The next test deals with T2, MUC1 peptide (15 aa+cystein, …). Nature of the test: SPR, scFv 2-200 nM over immobilized MUC1 peptide, Chip 1 (47 RU).
In turn, B3 yielded a Ka of 7.5e+08 M⁻¹, a dissociation constant Kd of 1.3 nM, a koff of 4.6e-05 s⁻¹ and a kon of 35000 M⁻¹ s⁻¹.
The like results for B4 were, in that order, 1.8e+09 M⁻¹, 0.57 nM, 2.1e-05 s⁻¹ and 38000 M⁻¹ s⁻¹.
The corresponding values for B6 are 2.3e+08 M⁻¹, 4.4 nM, 0.00022 s⁻¹ and 50000 M⁻¹ s⁻¹.
The like results for B7 were, in that order, 4.8e+08 M⁻¹, 2.1 nM, 0.0001 s⁻¹ and 49000 M⁻¹ s⁻¹.
Molecule B5 gave a Ka of 1e+09 M⁻¹, a Kd of 1 nM, a koff of 7.2e-05 s⁻¹ and a kon of 72000 M⁻¹ s⁻¹.
B8 gave a Ka of 2.8e+08 M⁻¹, a Kd of 3.7 nM, a koff of 0.00011 s⁻¹ and a kon of 29000 M⁻¹ s⁻¹.

The next test has the same target. Nature of the test: SPR, scFv over immobilized MUC1 peptide, Chip 2 (14 RU); Chip 2 (14 RU MUC1 peptide).
As to B4, binding was characterised by a dissociation constant (Kd) of 0.65 nM.

The target in the next test is T1, 32-mer MUC1 peptide. Nature of the test: ELISA, 32-mer MUC1 peptide immobilized in microtitre wells, IgG about 0.03 to 8000 ng/well, A450-A620 (preliminary results according to the legend). Here is the method: as §1
On to B1, for which the “EC50 (read off the curve)” value was around 10 ng/well.
Still for that read-out and setting: as for B2, the figure is around 10 ng/well.

The target in the next test is T1, 32-mer MUC1 peptide. The experiment in a line: titration ELISA, MUC1 peptide (32mer Cys) 50 ng/well, IgG diluted 1:3.16 from 100 µg/mL, detection goat anti-human IgG (Fc) HRP, TMB; mean of three plates, BSA value subtracted; A450-A620. How it is done:
3× Nunc Maxisorp plates coated with 50 ng/well MUC1 peptide antigen (32mer cys, sequence: […]) [0227] Control plate was coated with 100 ng/well BSA [0228] Blocking solution: 2% skim milk powder in PBS-T (0.1% Tween), 1 h, RT [0229] IgG samples were diluted to a final concentration of 100 μg/ml with blocking solution [0230] samples were sequentially diluted 1:3.16 [0231] detection: goat anti-human IgG (Fc spec) HRP conjugate (Sigma, 1:39000), 1 h, RT [0232] Development: TMB substrate, reaction stopped with sulfuric acid after 10 minutes. [0233] A450-A620 measured in a Tecan Sunrise Reader [0234] […] Mean value and standard deviation of three plates (MUC1) calculated [0236] BSA value (negative control) subtracted from mean value [0237] Plotting: [0238]
Regarding B1, the “EC50 (read off the curve)” value is around 0.1 µg/mL.
Same read-out and setting: the figure for B2 is around 0.1 µg/mL.

These data come from patent US20110318757A1 (MAB FACTORY, published 2011).
